Reference: article PMC9303355 (Diabetes, Obesity & Metabolism, 2022)

Key:
Format in all cases: in vivo, healthy subjects (human)
[1] = Safety assessments; conditions: single 0.3 IU/kg s.c.
[2] = test system: blood glucose (glucose infusion rate); experiment: Automated euglycaemic glucose clamp; conditions: healthy subjects; single 0.3 IU/kg s.c.; PP population; median, N=39/38
[3] = Pharmacokinetics of plasma insulin after a single subcutaneous dose; conditions: healthy subjects, single 0.3 IU/kg s.c., PP population, median

## Humulin‐R: US‐approved reference regular recombinant human insulin product (Eli Lilly and Company)
[1]; healthy subjects
  tolerability: generally well tolerated
[1]; safety analysis set
  headache (number of events): eight
  injection‐site reactions (number of AEs): four
  subjects with headache: eight
  subjects with injection‐site reactions: three
[2]
  t50%‐GIR(early): 1.33 h
  t50%‐GIR(late): 7.03 h
  tGIR.max (time to maximum glucose infusion rate): 4.15 h
[3]; N=40/41
  λz (terminal elimination rate constant of insulin): 0.5373 h⁻¹
[3]; N=41
  t50%‐ins(late): 6.23 h
